Reference: paper PMC10095280
Values belong to the substance of their own block, whether it stands above or below them.

Tests used:
β-arrestin2 [1] = molecular target: β-arrestin2 (UniProt P32121); experiment: bystander BRET, β-arrestin2-Rluc2 to membrane GFP-CAAX; conditions: for percent of reference: reference: wild type
β-arrestin2 [2] = molecular target: β-arrestin2 (UniProt P32121); experiment: direct BRET, D1R-Rluc8 and β-arrestin2-mVenus; conditions: reference: wild type
β-arrestin2 [3] = molecular target: β-arrestin2 (UniProt P32121); experiment: β-arrestin recruitment BRET, type not stated; conditions: reference: wild type; sites S417,S421,T428,S431,T439,S441,S445,T446
[4] = sites S256,S258,S259,T360,S362,S372,S373,S380,T428,S431,T439,S441,S445,T446

other: Emax, % of full-length WT D1R (β-arrestin2 [1]; reference: D1R T1 truncation, sites T360,S362): weaker; reference 112 ± 5.1
Substance: D1 dopamine receptor (D1R) T1 truncation, stop after 370 (from UniProt P18901) D1R T1 + T5V/S6A

percent of reference (β-arrestin2 [2]; sites T360): weaker; reference 100
Substance: D1 dopamine receptor (D1R) (from UniProt P18901) T5V (T360V)

other: Emax, % of WT D1R (β-arrestin2 [1]; reference: PKC-null + A259S (S259 restored), sites S259): same; reference 59 ± 9.4
Substance: D1 dopamine receptor (D1R) (from UniProt P18901) PKC-null

percent of reference (β-arrestin2 [2]; sites T360,S362): weaker; reference 100
percent of reference (β-arrestin2 [1]; sites T360,S362): weaker; reference 100
Substance: D1 dopamine receptor (D1R) (from UniProt P18901) T5V/S6A (T360V/S362A)

percent of reference (β-arrestin2 [3]): weaker; reference 100
Substance: D1 dopamine receptor (D1R) (from UniProt P18901) S13–S20 mutant (8 distal C-terminal S/T mutated)

More lines, now with the values behind:

Substance: D1 dopamine receptor (D1R) (from UniProt P18901) PKC-null (S259A/S397A/S398A/S417A/S421A)
percent of reference (β-arrestin2 [1]; sites S259,S397,S398,S417,S421): weaker; reference 100

Substance: D1 dopamine receptor (D1R) (from UniProt P18901) S6A (S362A)
percent of reference (β-arrestin2 [2]; sites S362): weaker; reference 100

Substance: D1 dopamine receptor (D1R) (from UniProt P18901) Tail Total (all 20 C-terminal S/T mutated)
percent of reference (β-arrestin2 [2]; sites S342,T343,T353,T354,T360,S362,S372,S373,S380,S382,S397,S398,S417,S421,T428,S431,T439,S441,S445,T446): weaker; reference 100

Substance: D1 dopamine receptor (D1R) (from UniProt P18901) GRK-null (14 GRK sites mutated)
percent of reference (β-arrestin2 [2]; [4]): lost; reference 100
percent of reference (β-arrestin2 [1]; [4]): lost; reference 100

Substance: D1 dopamine receptor (D1R) (from UniProt P18901) S2/S3/S4 mutant (S256A/S258A/S259A)
percent of reference (β-arrestin2 [1]; sites S256,S258,S259): weaker; reference 100
